Reference: article PMC9482650, “Quantitative fragmentomics allow affinity mapping of interactomes” (Nature Communications, 2022)

T1: APBA2_2, Q99767
T1 sequence (Q99767 654-744, limits assumed, looked up): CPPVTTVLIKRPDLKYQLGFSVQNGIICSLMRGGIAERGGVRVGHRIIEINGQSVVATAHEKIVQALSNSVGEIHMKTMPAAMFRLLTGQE

T2: ARHGAP21, Q5T5U3
T2 sequence (Q5T5U3 45-169, limits assumed, looked up): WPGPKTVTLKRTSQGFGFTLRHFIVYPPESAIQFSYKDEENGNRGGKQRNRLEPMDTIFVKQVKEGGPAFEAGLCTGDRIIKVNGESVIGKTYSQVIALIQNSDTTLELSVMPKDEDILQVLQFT

T3: CARD11, Q9BXL7
T3 sequence (Q9BXL7 662-765, limits assumed, looked up): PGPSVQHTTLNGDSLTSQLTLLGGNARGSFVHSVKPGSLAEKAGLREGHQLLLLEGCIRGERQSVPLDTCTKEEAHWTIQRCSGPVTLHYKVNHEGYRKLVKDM

T4: DFNB31_1, Q9P202
T4 sequence (Q9P202 135-233, limits assumed, looked up): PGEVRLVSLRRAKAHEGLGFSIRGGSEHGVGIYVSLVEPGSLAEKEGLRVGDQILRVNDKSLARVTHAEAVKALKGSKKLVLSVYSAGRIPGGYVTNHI

T5: DFNB31_3, Q9P202
T5 sequence (Q9P202 811-907, limits assumed, looked up): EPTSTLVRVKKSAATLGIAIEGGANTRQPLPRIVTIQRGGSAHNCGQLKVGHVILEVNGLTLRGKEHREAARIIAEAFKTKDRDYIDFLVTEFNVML

T6: FRMPD1, Q5SYB0
T6 sequence (Q5SYB0 52-145, limits assumed, looked up): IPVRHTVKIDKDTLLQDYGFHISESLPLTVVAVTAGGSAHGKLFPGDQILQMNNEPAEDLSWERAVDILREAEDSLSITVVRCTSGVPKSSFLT

T7: HTRA3, P83110
T7 sequence (P83110 354-453, limits assumed, looked up): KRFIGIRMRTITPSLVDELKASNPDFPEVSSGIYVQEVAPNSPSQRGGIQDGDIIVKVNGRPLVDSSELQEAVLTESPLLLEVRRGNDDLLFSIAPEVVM

T8: PARD3B_1, Q8TEW8
T8 sequence (Q8TEW8 196-299, limits assumed, looked up): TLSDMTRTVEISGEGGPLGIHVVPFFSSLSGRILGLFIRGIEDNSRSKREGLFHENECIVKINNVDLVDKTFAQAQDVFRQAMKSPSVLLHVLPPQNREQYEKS

T9: PDZD7_3, Q9H5P4
T9 sequence (Q9H5P4 857-944, limits assumed, looked up): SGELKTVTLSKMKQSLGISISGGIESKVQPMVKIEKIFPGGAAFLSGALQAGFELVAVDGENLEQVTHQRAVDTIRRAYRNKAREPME

T10: SIPA1L2, Q9P2F8
T10 sequence (Q9P2F8 945-1036, limits assumed, looked up): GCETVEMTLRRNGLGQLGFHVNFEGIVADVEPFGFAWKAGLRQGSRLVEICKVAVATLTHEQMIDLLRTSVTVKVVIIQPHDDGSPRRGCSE

T11: SNTA1, Q13424
T11 sequence (Q13424 82-180, limits assumed, looked up): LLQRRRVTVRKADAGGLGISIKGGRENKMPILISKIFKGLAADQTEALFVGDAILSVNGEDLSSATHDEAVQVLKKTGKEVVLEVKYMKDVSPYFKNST

T12: SNTG1, Q9NSN8
T12 sequence (Q9NSN8 52-150, limits assumed, looked up): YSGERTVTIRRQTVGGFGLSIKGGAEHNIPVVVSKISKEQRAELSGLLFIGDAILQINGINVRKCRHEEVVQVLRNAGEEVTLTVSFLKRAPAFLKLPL

T13: TJP3_3, O95049
T13 sequence (O95049 375-456, limits assumed, looked up): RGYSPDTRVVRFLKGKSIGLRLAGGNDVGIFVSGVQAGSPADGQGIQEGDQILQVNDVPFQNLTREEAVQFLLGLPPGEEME

B1: ATRNL1, Q5VV63 (peptide)
chain: HLSTRQGTCV
B2: SLC5A12, Q1EHB4 (peptide)
chain: NNMAFETTHF

Target: T1, APBA2_2, Q99767
Assay: holdup assay
Parameters: key: below the threshold = too weak to quantify, mostly under pKd 3.1 to 4
Conditions: plain residues with an end cap or a label only (N-terminal biotin on a linker: ado-ado)

pKd	Binder
below the threshold	B1
below the threshold	B2

Target: T2, ARHGAP21, Q5T5U3
Assay: holdup assay
Parameters: key: below the threshold = too weak to quantify, mostly under pKd 3.1 to 4
Conditions: plain residues with an end cap or a label only (N-terminal biotin on a linker: ado-ado)

pKd	Binder
below the threshold	B1
3.94	B2

Target: T3, CARD11, Q9BXL7
Assay: holdup assay
Parameters: key: below the threshold = too weak to quantify, mostly under pKd 3.1 to 4
Conditions: plain residues with an end cap or a label only (N-terminal biotin on a linker: ado-ado)

pKd	Binder
below the threshold	B1
below the threshold	B2

Target: T4, DFNB31_1, Q9P202
Assay: holdup assay
Parameters: key: below the threshold = too weak to quantify, mostly under pKd 3.1 to 4
Conditions: plain residues with an end cap or a label only (N-terminal biotin on a linker: ado-ado)

pKd	Binder
3.51	B1
4.01	B2

Target: T5, DFNB31_3, Q9P202
Assay: holdup assay
Parameters: key: below the threshold = too weak to quantify, mostly under pKd 3.1 to 4
Conditions: plain residues with an end cap or a label only (N-terminal biotin on a linker: ado-ado)

pKd	Binder
below the threshold	B1
3.78	B2

Target: T6, FRMPD1, Q5SYB0
Assay: holdup assay
Parameters: key: below the threshold = too weak to quantify, mostly under pKd 3.1 to 4
Conditions: plain residues with an end cap or a label only (N-terminal biotin on a linker: ado-ado)

pKd	Binder
below the threshold	B1
below the threshold	B2

Target: GORASP1, Q9BQQ3
Sequence (Q9BQQ3 1-208): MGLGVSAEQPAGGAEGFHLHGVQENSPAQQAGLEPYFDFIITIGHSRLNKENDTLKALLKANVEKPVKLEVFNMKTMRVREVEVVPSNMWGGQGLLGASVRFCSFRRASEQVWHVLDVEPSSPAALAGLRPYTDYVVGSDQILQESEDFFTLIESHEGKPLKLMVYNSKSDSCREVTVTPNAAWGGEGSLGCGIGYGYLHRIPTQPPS
Assay: holdup assay
Parameters: key: below the threshold = too weak to quantify, mostly under pKd 3.1 to 4
Conditions: plain residues with an end cap or a label only (N-terminal biotin on a linker: ado-ado)

pKd	Binder
3.47	B1
below the threshold	B2

Target: GRIP2_3, Q9C0E4
Sequence (Q9C0E4 238-339): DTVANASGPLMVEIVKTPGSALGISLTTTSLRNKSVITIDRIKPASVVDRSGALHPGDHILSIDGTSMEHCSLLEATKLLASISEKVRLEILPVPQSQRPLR
Assay: holdup assay
Parameters: key: below the threshold = too weak to quantify, mostly under pKd 3.1 to 4
Conditions: plain residues with an end cap or a label only (N-terminal biotin on a linker: ado-ado)

pKd	Binder
below the threshold	B1
below the threshold	B2

Target: GRIP2_7, Q9C0E4
Sequence (Q9C0E4 934-1023): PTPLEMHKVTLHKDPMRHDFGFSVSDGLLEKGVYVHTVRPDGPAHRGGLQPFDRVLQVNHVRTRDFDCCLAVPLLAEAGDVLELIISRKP
Assay: holdup assay
Parameters: key: below the threshold = too weak to quantify, mostly under pKd 3.1 to 4
Conditions: plain residues with an end cap or a label only (N-terminal biotin on a linker: ado-ado)

pKd	Binder
below the threshold	B1
below the threshold	B2

Target: T7, HTRA3, P83110
Assay: holdup assay
Parameters: key: below the threshold = too weak to quantify, mostly under pKd 3.1 to 4
Conditions: plain residues with an end cap or a label only (N-terminal biotin on a linker: ado-ado)

pKd	Binder
4.45	B1
below the threshold	B2

Target: LIMK2, P53671
Sequence (P53671 143-248): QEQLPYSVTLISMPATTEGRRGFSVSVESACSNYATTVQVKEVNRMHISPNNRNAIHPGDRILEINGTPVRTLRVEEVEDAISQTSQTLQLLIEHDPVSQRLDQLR
Assay: holdup assay
Parameters: key: below the threshold = too weak to quantify, mostly under pKd 3.1 to 4
Conditions: plain residues with an end cap or a label only (N-terminal biotin on a linker: ado-ado)

pKd	Binder
below the threshold	B1
below the threshold	B2

Target: MAGI1_2, Q96QZ7
Sequence (Q96QZ7 456-580): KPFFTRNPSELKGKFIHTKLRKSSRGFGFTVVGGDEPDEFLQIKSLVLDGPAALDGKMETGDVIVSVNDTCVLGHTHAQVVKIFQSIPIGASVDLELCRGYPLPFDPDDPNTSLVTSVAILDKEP
Assay: holdup assay
Parameters: key: below the threshold = too weak to quantify, mostly under pKd 3.1 to 4
Conditions: plain residues with an end cap or a label only (N-terminal biotin on a linker: ado-ado)

pKd	Binder
4.65	B1
below the threshold	B2

Target: NHERF4_2, Q86UT5
Sequence (Q86UT5 220-308): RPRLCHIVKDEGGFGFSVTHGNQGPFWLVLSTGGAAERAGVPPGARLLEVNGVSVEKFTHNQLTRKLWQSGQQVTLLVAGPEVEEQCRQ
Assay: holdup assay
Parameters: key: below the threshold = too weak to quantify, mostly under pKd 3.1 to 4
Conditions: plain residues with an end cap or a label only (N-terminal biotin on a linker: ado-ado)

pKd	Binder
below the threshold	B1
below the threshold	B2

Target: T8, PARD3B_1, Q8TEW8
Assay: holdup assay
Parameters: key: below the threshold = too weak to quantify, mostly under pKd 3.1 to 4
Conditions: plain residues with an end cap or a label only (N-terminal biotin on a linker: ado-ado)

pKd	Binder
below the threshold	B1
4.49	B2

Target: PARD3_3, Q8TEW0
Sequence (Q8TEW0 582-685): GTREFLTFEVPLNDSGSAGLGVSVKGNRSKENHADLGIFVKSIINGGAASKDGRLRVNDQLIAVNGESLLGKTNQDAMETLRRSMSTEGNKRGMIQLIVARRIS
Assay: holdup assay
Parameters: key: below the threshold = too weak to quantify, mostly under pKd 3.1 to 4
Conditions: plain residues with an end cap or a label only (N-terminal biotin on a linker: ado-ado)

pKd	Binder
below the threshold	B1
below the threshold	B2

Target: T9, PDZD7_3, Q9H5P4
Assay: holdup assay
Parameters: key: below the threshold = too weak to quantify, mostly under pKd 3.1 to 4
Conditions: plain residues with an end cap or a label only (N-terminal biotin on a linker: ado-ado)

pKd	Binder
4.2	B1
below the threshold	B2

Target: SCRIB_1, Q14160
Sequence (Q14160 718-814): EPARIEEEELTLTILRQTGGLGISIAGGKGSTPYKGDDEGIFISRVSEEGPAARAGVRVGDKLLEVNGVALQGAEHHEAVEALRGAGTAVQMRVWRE
Assay: holdup assay
Parameters: key: below the threshold = too weak to quantify, mostly under pKd 3.1 to 4
Conditions: plain residues with an end cap or a label only (N-terminal biotin on a linker: ado-ado)

pKd	Binder
3.66	B1
4.14	B2

Target: SCRIB_3, Q14160
Sequence (Q14160 999-1103): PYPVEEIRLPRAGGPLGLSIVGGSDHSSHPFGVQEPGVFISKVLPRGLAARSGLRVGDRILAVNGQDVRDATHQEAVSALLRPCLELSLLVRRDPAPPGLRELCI
Assay: holdup assay
Parameters: key: below the threshold = too weak to quantify, mostly under pKd 3.1 to 4
Conditions: plain residues with an end cap or a label only (N-terminal biotin on a linker: ado-ado)

pKd	Binder
4.13	B1
4.02	B2

Target: T10, SIPA1L2, Q9P2F8
Assay: holdup assay
Parameters: key: below the threshold = too weak to quantify, mostly under pKd 3.1 to 4
Conditions: plain residues with an end cap or a label only (N-terminal biotin on a linker: ado-ado)

pKd	Binder
below the threshold	B1
below the threshold	B2

Target: T11, SNTA1, Q13424
Assay: holdup assay
Parameters: key: below the threshold = too weak to quantify, mostly under pKd 3.1 to 4
Conditions: plain residues with an end cap or a label only (N-terminal biotin on a linker: ado-ado)

pKd	Binder
3.67	B1
below the threshold	B2

Target: T12, SNTG1, Q9NSN8
Assay: holdup assay
Parameters: key: below the threshold = too weak to quantify, mostly under pKd 3.1 to 4
Conditions: plain residues with an end cap or a label only (N-terminal biotin on a linker: ado-ado)

pKd	Binder
below the threshold	B1
below the threshold	B2

Target: TJP1_2, Q07157
Sequence (Q07157 181-274): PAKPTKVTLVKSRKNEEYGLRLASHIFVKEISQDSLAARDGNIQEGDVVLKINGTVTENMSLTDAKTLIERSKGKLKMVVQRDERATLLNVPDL
Assay: holdup assay
Parameters: key: below the threshold = too weak to quantify, mostly under pKd 3.1 to 4
Conditions: plain residues with an end cap or a label only (N-terminal biotin on a linker: ado-ado)

pKd	Binder
below the threshold	B1
below the threshold	B2

Target: TJP2_1, Q9UDY2
Sequence (Q9UDY2 24-128): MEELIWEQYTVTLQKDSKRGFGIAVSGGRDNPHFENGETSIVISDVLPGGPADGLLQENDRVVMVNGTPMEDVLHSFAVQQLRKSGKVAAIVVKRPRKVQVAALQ
Assay: holdup assay
Parameters: key: below the threshold = too weak to quantify, mostly under pKd 3.1 to 4
Conditions: plain residues with an end cap or a label only (N-terminal biotin on a linker: ado-ado)

pKd	Binder
4.35	B1
below the threshold	B2

Target: T13, TJP3_3, O95049
Assay: holdup assay
Parameters: key: below the threshold = too weak to quantify, mostly under pKd 3.1 to 4
Conditions: plain residues with an end cap or a label only (N-terminal biotin on a linker: ado-ado)

pKd	Binder
below the threshold	B1
below the threshold	B2
